# Measured values taken from paper PMC13354579 (EMBO Reports, 2026).
# T1: RAD23A^UBL (human, UniProt P54725 1-84)
# T1 construct: RAD23A, human, N-terminal ubiquitin-like domain, residues 1-84; The limits 1-84 are stated for the crystallised construct; also called UBL domain of RAD23A; RAD23A (1–84); source: E. coli (Rosetta2(DE3) for crystallisation), purified via GST tag and SEC
# T1 sequence (looked up): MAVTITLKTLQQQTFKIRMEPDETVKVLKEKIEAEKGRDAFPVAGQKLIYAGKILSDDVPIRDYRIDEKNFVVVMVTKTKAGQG
# B1: MINDY3^EF-hand (domain or fragment, human, UniProt Q9H8M7 297-370, looked up)
# chain: ALVAPEAPSEQARRVFQTYDPEDNGFIPDSLLEDVMKALDLVSDPEYINLMKNKLDPEGLGIILLGPFLQEFFP
# notes: MINDY3, human, EF-hand domain, residues 297-370; The limits 297-370 are stated for the crystallised construct; also called EF-hand domain of MINDY3; MINDY3 (297–370); source: E. coli (Rosetta2(DE3) for crystallisation), purified via GST tag and SEC
# Target: T1, RAD23A^UBL
# Assay: ITC; MicroCal PEAQ-ITC, 25 °C, 50 mM Tris-HCl pH 7.5, 150 mM NaCl, 250 µM TCEP; DUB in the syringe titrated into K48-linked polyUb in the cell, in other experiments the scarcest species in the cell; n = 2, mean ± SD
# Conditions: both partners purified
binder,measurement,value
B1,Kd,3.5 µM
